Substitutions are numbered along the chain they refer to.
T1: MatP (MatPΔ18C) (Escherichia coli, UniProt P0A8N0 1-132)
T1 sequence: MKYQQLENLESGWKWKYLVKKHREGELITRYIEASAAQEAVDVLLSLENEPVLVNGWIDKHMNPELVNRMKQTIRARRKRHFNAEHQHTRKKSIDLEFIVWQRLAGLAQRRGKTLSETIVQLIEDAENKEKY

T2: MatP4E (Escherichia coli, UniProt P0A8N0 1-132, K71E;Q72E;R75E;R77E)
T2 sequence: T1 sequence with K71E, Q72E, R75E, R77E

B1: 50 bp matS DNA (dsDNA)
DNA 1: CAGAGTTAATCAGAACGGTGACAATGTCACAAAGAAAAAGAACCTGTGCG
DNA 2: CGCACAGGTTCTTTTTCTTTGTGACATTGTCACCGTTCTGATTAACTCTG
B2: 50 bp nonspecific DNA (dsDNA)
DNA 1: CAGAGTTAATCACAACGGTTCTCGATCATCAAAGAAAAACAAGCTGTGCG
DNA 2: CGCACAGCTTGTTTTTCTTTGATGATCGAGAACCGTTGTGATTAACTCTG

Assays:
MatP (MatPΔ18C) = target: T1, MatP (MatPΔ18C); experiment: native MS; Native PAGE: 50 mM HEPES pH 7.5, 100 mM NaCl, 1 mM MgCl2, 1 mM DTT, 10% glycerol, on ice 30 min; FCS: 20 mM Tris-HCl pH 7.5, 50 mM NaCl, 0.3 mg/mL BSA, 2 mM DTT, 0.05% Tween-20, 22 °C; nMS buffer not given in the material; details: protein: recombinant; tags: C-terminal 6xHis; chain copies: 2; blunt
MatP4E = target: T2, MatP4E; experiment: EMSA (native PAGE); 1 mM Mg2+; Native PAGE: 50 mM HEPES pH 7.5, 100 mM NaCl, 1 mM MgCl2, 1 mM DTT, 10% glycerol, on ice 30 min; FCS: 20 mM Tris-HCl pH 7.5, 50 mM NaCl, 0.3 mg/mL BSA, 2 mM DTT, 0.05% Tween-20, 22 °C; nMS buffer not given in the material; details: protein: recombinant; tags: C-terminal 6xHis; chain copies: 2; blunt

Binder	binding result (MatP (MatPΔ18C))	binding result (MatP4E)
B1	binds	no binding
B2		no binding
